Columns and labels:
GFP-NLRP6 monomer = target: T1, GFP-NLRP6 monomer (Homo sapiens, UniProt P59044 1-892); experiment: MST
T1 sequence: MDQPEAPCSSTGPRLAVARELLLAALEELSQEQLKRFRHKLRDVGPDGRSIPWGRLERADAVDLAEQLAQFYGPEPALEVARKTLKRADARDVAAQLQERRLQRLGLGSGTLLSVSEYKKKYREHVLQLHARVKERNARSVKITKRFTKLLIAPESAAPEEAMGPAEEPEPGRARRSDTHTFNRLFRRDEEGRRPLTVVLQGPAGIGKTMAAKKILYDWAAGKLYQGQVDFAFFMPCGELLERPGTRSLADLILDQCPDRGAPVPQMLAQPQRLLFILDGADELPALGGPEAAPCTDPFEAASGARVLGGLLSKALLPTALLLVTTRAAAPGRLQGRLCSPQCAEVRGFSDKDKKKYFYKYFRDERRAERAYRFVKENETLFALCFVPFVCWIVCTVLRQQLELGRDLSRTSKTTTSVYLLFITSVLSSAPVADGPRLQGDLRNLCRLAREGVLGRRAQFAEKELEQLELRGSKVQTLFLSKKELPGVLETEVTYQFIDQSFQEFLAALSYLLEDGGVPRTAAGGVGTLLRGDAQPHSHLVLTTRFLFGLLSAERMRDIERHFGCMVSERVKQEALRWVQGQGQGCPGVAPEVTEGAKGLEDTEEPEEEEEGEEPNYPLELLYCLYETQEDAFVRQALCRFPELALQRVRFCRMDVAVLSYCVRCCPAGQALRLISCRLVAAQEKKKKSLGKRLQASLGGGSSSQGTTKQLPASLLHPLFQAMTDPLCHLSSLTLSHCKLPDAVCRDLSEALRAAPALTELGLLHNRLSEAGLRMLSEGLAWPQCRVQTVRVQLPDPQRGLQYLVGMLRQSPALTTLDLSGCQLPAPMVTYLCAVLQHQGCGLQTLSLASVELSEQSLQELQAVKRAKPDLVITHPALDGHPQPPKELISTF

MBP-NLRP3 deltaPYD = MBP-NLRP3 deltaPYD (UniProt Q96P20 134-1034); experiment: EMSA
Sequence of MBP-NLRP3 deltaPYD (Q96P20 134-1034, stated change not applied): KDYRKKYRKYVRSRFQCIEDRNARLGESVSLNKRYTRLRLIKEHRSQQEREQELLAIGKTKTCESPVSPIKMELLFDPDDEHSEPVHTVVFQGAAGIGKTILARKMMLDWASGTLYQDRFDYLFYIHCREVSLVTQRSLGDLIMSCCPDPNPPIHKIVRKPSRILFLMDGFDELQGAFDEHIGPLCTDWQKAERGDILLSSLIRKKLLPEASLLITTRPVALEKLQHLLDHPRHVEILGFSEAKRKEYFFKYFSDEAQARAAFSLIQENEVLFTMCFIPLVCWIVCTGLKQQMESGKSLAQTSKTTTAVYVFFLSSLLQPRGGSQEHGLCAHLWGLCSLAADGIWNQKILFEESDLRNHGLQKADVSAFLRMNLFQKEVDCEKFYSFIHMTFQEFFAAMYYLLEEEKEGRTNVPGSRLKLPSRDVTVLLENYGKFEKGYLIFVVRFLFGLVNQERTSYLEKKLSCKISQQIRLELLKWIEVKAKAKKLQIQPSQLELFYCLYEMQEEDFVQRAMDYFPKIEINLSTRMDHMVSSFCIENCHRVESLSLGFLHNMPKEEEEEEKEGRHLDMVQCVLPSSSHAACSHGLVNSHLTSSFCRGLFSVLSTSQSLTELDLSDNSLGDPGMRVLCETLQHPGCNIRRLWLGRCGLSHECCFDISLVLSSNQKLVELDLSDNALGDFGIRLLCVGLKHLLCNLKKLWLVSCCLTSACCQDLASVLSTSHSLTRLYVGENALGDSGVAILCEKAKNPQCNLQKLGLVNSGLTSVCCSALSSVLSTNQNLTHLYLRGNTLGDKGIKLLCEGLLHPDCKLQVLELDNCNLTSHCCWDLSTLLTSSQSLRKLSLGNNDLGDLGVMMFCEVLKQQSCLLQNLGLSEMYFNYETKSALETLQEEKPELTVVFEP

B1: 20-bp dsRNA (dsRNA)
RNA 1: GACCUUCUGAUCAGAAGGUC
RNA 2: GACCUUCUGAUCAGAAGGUC
Q: What does the source list for B1?
A: Kd (GFP-NLRP6 monomer): ~1200 nM; binding result (MBP-NLRP3 deltaPYD): no binding
